Measured values taken from patent publication US8455435B2, “Remedies for ischemia” (Ludwig-Maximilians-Universitat Munchen, priority 2006, dated 2013).
Entries after “also recorded” stand apart in the source; their conditions may differ.

Assays:
[1] = system: CD45+/CD34+ and CD34+/CXCR4+ cells in the heart; assay: Flow cytometry of non myocyte cardiac cells after MI; format: in vivo, C57BL/6 and CD26 k.o. mice; settings: AMD3100 1.25 mg/kg i.p. in G-CSF treated CD26 k.o. and G-CSF-DipA animals
Protocol: FIGS. 27A, 27C, 27E, Tab. S 3A; Nr. 2: FIGS. 27B, 27D, 27F, Tab. S 3B). Animal care and all experimental procedures were performed in strict accordance to the Guide for the Care and Use of Laboratory Animals published by the US National Institutes of Health (NIH publication No. 85-23, revised 1996). Mice were randomly divided into the following groups: […] G-CSF and/or Diprotin A treatment was initiated immediately after the surgical procedure. Cardiac cells from sham operated and infarcted hearts of wt and CD26 k.o. mice were analyzed 48 hours after MI (n=6). Therefore, a “myocyte-depleted” cardiac cell population was prepared, incubating minced myocardium in 0.1% collagenase IV (Gibco BrL) 30 min at 37° C., lethal to most adult mouse cardiomyocytes (Zhou et al., 2000). Cells were then filtered through a 70-μm mesh. […] Cells were stained with CD45-PerCP, CD34-FITC, CD26-FITC, c-kit-PE, Sca-1-PE, CXCR4-PE Flk-1, Flk-PE, CD3-biotin, CD45R/B220-biotin, CD11b-biotin, TER-119-biotin, Ly-6G-biotin Abs (all from BD Pharmingen) and subjected to flow cytometry using […] flow cytometer and Expo32 ADC Xa software (Beckman Coulter). For evaluation of SDF-1-CXCR4 dependent homing, G-CSF stimulated CD26 k.o. mice were treated i.p. with the CXCR4-antagonist AMD3100 (1.25 mg/kg). Cardiac cells were analyzed 8 hours after the last AMD3100 application. Each analysis included 50000 events.

[2] = target: CXCR4 (Mus musculus, UniProt P70658); settings: 48 hours after MI; cited from earlier work
Chain of CXCR4 (P70658 whole entry): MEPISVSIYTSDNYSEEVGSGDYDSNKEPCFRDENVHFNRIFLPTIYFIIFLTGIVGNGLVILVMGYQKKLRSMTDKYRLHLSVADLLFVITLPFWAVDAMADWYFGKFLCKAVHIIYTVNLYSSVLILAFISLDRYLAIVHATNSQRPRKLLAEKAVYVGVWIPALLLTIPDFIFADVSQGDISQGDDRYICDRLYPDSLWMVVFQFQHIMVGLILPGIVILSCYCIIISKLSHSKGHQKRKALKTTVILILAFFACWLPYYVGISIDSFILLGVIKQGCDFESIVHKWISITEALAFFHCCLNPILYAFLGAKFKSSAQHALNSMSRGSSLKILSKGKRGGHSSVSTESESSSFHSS

[3] = system: cortical infarct; settings: permanent middle cerebral artery occlusion; cited from earlier work
[4] = system: CD45+/CD34+ and CD45+/CD34- cell populations in peripheral blood; assay: Flow cytometry of peripheral blood mononuclear cells after PTH or G-CSF in healthy mice; format: in vivo, C57BL/6 mice; settings: PTH day 6 and day 14; G-CSF day 6
Protocol: (§1) For the experiments healthy age- and sex-matched (male, 8-12 weeks of age) C57BL/6 mice (Charles River) were used. Animal care and all experimental procedures were performed in strict accordance to the German and National Institutes of Health animal legislation guidelines and were approved by the local animal care and use committees.
(§2) Mice were divided into the following groups: 1) administration of saline daily for 6 days, sacrificed at day 7 (n=6). 2) administration of PTH (Bachem) daily for 6 consecutive days (80 μg per kg body weight per day, intraperitoneally), sacrificed at day 7 (n=6). 3) administration of PTH daily for 14 consecutive days, sacrificed at day 15 (n=6). 4) administration of G-CSF (Amgen Biologicals) daily for 5 consecutive days (200 μg per kg body weight per day, intraperitoneally), sacrificed at day 6 (n=6).
(§3) at day 6, 1 ml of peripheral blood was harvested from each mouse by aspirating the carotid artery. Bone marrow cells were obtained by flushing the tibias and femurs from the euthanized mice. Mononuclear cells were separated by density-gradient centrifugation using 1.077 g/mL Histopaque solution (Sigma Chemicals), purified and resuspended in phosphate-buffered saline (PBS) containing 1% bovine serum albumin. Cells were incubated for 40 minutes in the dark at 4° C. with following fluorescein-isothiocyanate (FITC), phycoerythrin (PE), and peridinin-chlorphyll-protein (PerCP) conjugated monoclonal antibodies: CD45-PerCP, C34-FITC, CD31-PE, Sca-1-PE and c-kit-PE (all from BD Pharmingen). Isotype-identical antibodies (BD Pharmingen) served as controls. Cells were analyzed by 3-color flow cytometry using a Coulter® Epics® XL-MCL™ flow cytometer (Beckman Coulter). Each analysis included 20000 events. The absolute number of antigen-positive cells per ml of whole blood was calculated by multiplying the percentage of antigen-positive cells with the total number of mononuclear cells per ml of blood detected by the conventional hematological cell analyzer. The number of lymphocytes together with the number of monocytes comprised the total number of mononuclear cells.

[5] = system: TUNEL positive cardiomyocytes; assay: TUNEL staining of apoptotic cardiomyocytes in the border zone after MI; format: in vivo, wt and CD26-/- mice; settings: 2 days after MI, wt and CD26-/- animals, vs saline
Protocol: (§4) Mice were randomly divided into the following groups: Sham operated animals (n=20), infarcted wildtyp (n=20) (wt) receiving either saline (0.9% NaCl), G-CSF (100 μg/kg/d i.p.), Diprotin A (70 μg/kg/twice per day) or G-CSF+Diprotin A and CD26 k.o. animals (n=20) receiving either saline (0.9% NaCl) or G-CSF (100 μg/kg/d) for up to 6 days. G-CSF and/or Diprotin A treatment was initiated immediately after the surgical procedure.
(§5) For immunostaining the following primary antibodies were used: CD45 (rat anti-mouse, BD Pharmingen), CD31 (goat anti-mouse, Santa Cruz), Ki67 (goat anti-mouse, Santa Cruz). AEC was used as chromogen. Double staining for CD31 and Ki67 was performed using DAB as additional chromogen (all from Dako). Apoptotic cells were detected according to Harada et al. 2005 (Harada et al., 2005) using the TUNEL assay (ApopTag, MP Biomedicals). Digital photographs were taken at a magnification of ×400, and 10 random high-power fields (HPF) from the borderzone of each heart sample (n=3) were analyzed. Quantification of blood vessels was assessed by CD31^+ immunohistochemistry in the granulation tissue at the border zone. The numbers of CD31^+ capillaries were quantified from 10 random high power fields (HPF) with 400× magnification.

[6] = system: CD45+/CD34+ and CD45+/CD34- cell populations in bone marrow; assay: Flow cytometry of bone marrow cells after PTH or G-CSF in healthy mice; format: in vivo, C57BL/6 mice
Protocol: as §1, §2, §3

[7] = system: infarcted heart; assay: Histology and immunohistochemistry after MI: infarct size, LV wall thickness, CD31+ capillaries (G-CSF, Diprotin A); format: in vivo, C57BL/6 and CD26 k.o. mice
Protocol: (§6) MI was induced in 10 weeks old male CD26 k.o. or C57BL/6 mice by surgical occlusion of the left anterior descending artery (LAD) as described previously (Deindl et al., 2006). Experiments concerning survival and cardiac function were performed by two different operators (Nr. 1: FIGS. 27A, 27C, 27E, Tab. S 3A; Nr. 2: FIGS. 27B, 27D, 27F, Tab. S 3B). Animal care and all experimental procedures were performed in strict accordance to the Guide for the Care and Use of Laboratory Animals published by the US National Institutes of Health (NIH publication No. 85-23, revised 1996).
as §4
At day 6 (n=6) and day 30 (n=6), hearts were excised. After fixation in 4% phosphate buffered formalin the hearts were cut transversally into 2 mm thick slices and embedded in paraffin. 4 μm thick sections were cut and mounted on positively charged glass slides. […] Infarct size and wall thickness were determined according to Deindl et al. (Deindl et al., 2006).
as §5, with “AEC was used as chromogen. Double staining for CD31 and Ki67 was performed using DAB as additional chromogen (all from Dako).” left out

[8] = system: myocardial function; assay: Pressure volume relations four weeks after MI (G-CSF, Diprotin A); format: in vivo, C57BL/6 and CD26 k.o. mice; settings: day 30, CD26 k.o. mice
Protocol: as §6, §4
For evaluation of pressure-volume relationships in vivo, mice were anesthetised with thiopental (100 mg/kg, i.p.), intubated and ventilated (MiniVent, HUGO SACHS, Freiburg, Germany). After catheterization via the right carotid artery an impedance-micro manometer catheter (Millar Instruments, Houston, Tex.) was introduced into the left ventricle. Raw conductance volumes were corrected for parallel conductance by the hypertonic saline dilution method as described previously (Zaruba et al., 2008). Heamodynamic measurements as well as data analyses were performed by a blinded person using PVAN analysis software (HUGO SACHS, March, Germany).

[9] = system: CD45+/CD34+ progenitors; assay: FACS of peripheral blood, stem cell mobilization by G-CSF; format: in vivo, C57BL/6 and CD26 k.o. mice; settings: G-CSF 100 μg/kg/d; wt (+/-Diprotin A) and CD26 k.o. mice vs saline
Protocol: 10 weeks old CD26 k.o. (n=6) were either treated with G-CSF (100 μg/kg/d) or saline daily for 6 days and or C57BL/6 mice (n=6) were treated with saline, G-CSF, Diprotin A or both daily for 6 days. Cells were separated as described previously (Deindl et al., 2006). The following monoclonal antibodies were used: CD45-PerCP, CD34-FITC, CD31-PE, c-kit-PE, Sca-1-PE, CXCR4-PE, Flk-PE, CD3-biotin, CD45R/B220-biotin, CD11b-biotin, TER-119-biotin, Ly-6G-biotin (all from BD Pharmingen). Matching isotype antibodies (BD Pharmingen) served as controls. Cells were analyzed by 3-color flow cytometry using a Coulter® Epics® XL-MCL™ flow cytometer (Beckman Coulter). Each analysis included 50000 events.

[10] = system: myocardial infarction; assay: Survival after MI (Kaplan-Meier; G-CSF, Diprotin A); format: in vivo, C57BL/6 and CD26 k.o. mice
Protocol: as §6, §4
Results were expressed as mean±s.e.m. Multiple group comparisons were performed by one-way analyses of variance (ANOVA) followed by the Bonferroni procedure for comparison of means. Comparisons between two groups were performed using the unpaired Student's t-test. Data were considered statistically significant at a value of p≦0.05. Mortality was analyzed by the Kaplan-Meier-method.

For `c1cc(CN2CCCNCCNCCCNCC2)ccc1CN1CCCNCCNCCCNCC1` [AMD3100], the “recruitment of CD34+/CXCR4+ cells into the heart after MI” value [1] is listed as “diminished the number; also recorded: reversed the recruitment” and the “decrease of bone marrow derived cell recruitment after MI” value [2] is listed as 64%.

In the case of “PTHrP(1-34): parathyroid hormone-related peptide fragment 1-34, SEQ ID NO:7”, the “decrease of cortical infarct size” value [3] is given as “up to 47%”.

B1: G-CSF: granulocyte colony stimulating factor (Amgen Biologicals) (protein, UniProt P09919 31-207, looked up)
Granulocyte …: TPLGPASSLPQSFLLKCLEQVRKIQGDGAALQEKLVSECATYKLCHPEELVLLGHSLGIPWAPLSSCPSQALQLAGCLSQLHSGLFLYQGLLQALEGISPELGPTLDTLQLDVADFATTIWQQMEELGMAPALQPTQGAMPAFASAFQRRAGGVLVASHLQSFLEVSYRVLRHLAQP
In the case of B1, the “subtypes of CD45+/CD34+ and CD45+/CD34- cells in peripheral blood” value [4] is reported as “significant increase”, the “number of TUNEL positive cardiomyocytes in the border zone” value [5] is reported as “decreased apoptotic cell death; also recorded: reduced the number” and the “increase of CD45+/CD34- cells in bone marrow compared to saline treated mice” value ([6]; G-CSF treatment, p<0.001) is reported as 18.9%. For the same molecule, the “subtypes of CD45+/CD34- cells in bone marrow” value ([6]; PTH day 6, G-CSF) was “significantly decreased”, the “subtypes of CD45+CD34+ cells in bone marrow” value ([6]; PTH day 6 or day 14, G-CSF vs control group) was “significant decrease” and the “number of CD31+ capillaries at the infarct borderzone” value ([7]; 6 days after MI, CD26 k.o. animals) was “Increased neovascularization; also recorded: significantly increased number”. The “size of LV infarction (scar tissue)” value ([7]; day 30, CD26 k.o. animals) was “smaller”, the “thickness of the left ventricular wall” value ([7]; day 30, CD26 k.o. animals) was “significantly improved thickness; also recorded: significantly ameliorated” and the “arterial afterload (arterial elastance)” value [8] was “markedly reduced”. For the same molecule, the “diastolic heart function (isovolumetric relaxation parameter Tau)” value [8] was “improved diastolic heart function”, the “ventricular dilation measured by enddiastolic volumes” value [8] was “attenuated ventricular dilation” and the “mobilization of CD45+/CD34+ progenitors in peripheral blood” value [9] was “significantly increased mobilization”. For the same molecule, the survival rate ([10]; CD26 k.o. mice) was 75% and the survival rate ([10]; wt animals) was 55%.
